Results from patent US8404652B2, “DNA-binding protein YB-1-containing collagen accumulation inhibitors” (Sumitomo Chemical Company, Limited, priority 2000, dated 2013).
One block for each molecule: values may come before it.

Legend:
Format in all cases: cell-based
[1] = system: promoter region of the human type-I collagen α2 strand gene (binding reporter vector); assay: CAT reporter assay of test substances, binding reporter vector-transduced fibroblast
Description: (§1) 2 ml of an angelica extract [ICHIMARU-PHARCOS, PHARCOLEX (trade mark of ICHIMARU-PHARCOS), angelica] and 2 ml of a basswood extract [ICHIMARU-PHARCOS, PHARCOLEX (trade mark of ICHIMARU-PHARCOS), linden] were freeze-dried and each was combined with 1 ml of dimethyl sulfoxide (hereinafter referred to as DMSO) per 50 mg of the freeze-dried material, whereby obtaining an angelica extract sample and a linden extract sample.
(§2) A normal human fetal dermal fibroblast was inoculated in a population of 1×10^6 cells in a 60-mm dish and incubated in D-MEM (+) overnight at 37° C. under 5% CO2 atmosphere, and then the culture medium was replaced with D-MEM (−). On the other hand, 100 μl of D-MEM (−) was combined with either of 2 μg of the binding reporter vector DNA or 2 μg of the non-binding reporter vector DNA obtained in Example 2 (3), and the mixture was allowed to stand at room temperature for 40 minutes (Solution 1). To 100 μl of MEM(−), 4.5 μl of Lipofectine (Gibco, Catalog No.18292-011) was added and the mixture was allowed to stand at room temperature for 40 minutes (Solution 2). Then Solution 1 and Solution 2 were mixed and allowed to stand at room temperature for 10 minutes, and then combined with 2 ml of D-MEM (−) and mixed. This mixture was added to the normal human fetal fibroblast described above, which was then incubated at 37° C. under 5% CO2 atmosphere for 6 hours. […]

[2] = system: DNA-binding protein of invention (YB-1) fused with GFP (pCMX-YB-1-GFP); assay: Fluorescent microscope examination of migration of YB-1-GFP into the nucleus; settings: human fibroblast transduced with pCMX-YB-1-GFP; 4 hours contact; IFN-γ 100 U/ml as positive control
Description: 100 ng of YB-1/RSV, 10 pmol of an oligonucleotide consisting of the nucleotide sequence represented by SEQ ID NO:.15, 10 pmol of an oligonucleotide consisting of the nucleotide sequence represented by SEQ ID NO:.16, 5 μl of the buffer included in KOD-Dash (TOYOBO, Catalog No.RR002A), 5 μl of Mg^2+ solution, 5 μl of dNTP mixture, 1 μl of KOD-Dash and distilled water were mixed to prepare 50 μl in total of a PCR solution, which was used to perform a PCR. The condition of the PCR involved an incubation at 94° C. for 2 minutes, followed by 35 cycles, each cycle involving the incubations at 94° C. for 15 seconds, 60° C. for 30 seconds and then 68° C. for 1 minute. After the PCR, the PCR solution was digested with HindIII and Pm1I and subjected to an ethanol precipitation to recover a DNA (hereinafter a DNA obtained as a residue is referred to as a YB-1DNA.). […] The nucleotide sequence of the plasmid DNA thus obtained was analyzed, and a plasmid having a nucleotide sequence in which a GFP amino acid sequence was encoded downstream of the amino acid sequence of the DNA-binding protein of the present invention with its reading flame being continued was selected. […]

[3] = system: human type-I collagen α2 strand mRNA; assay: Type-I collagen α2 strand mRNA quantity (northern blotting) with test substances; settings: extract 50 μg lyophilized sample per ml, INF-γ 100 U/ml
Description: A normal human fetal dermal fibroblast was inoculated in a population of […] in a 100-mm dish and incubated in D-MEM (+) overnight at 37° C. under 5% CO2 atmosphere. This cell was supplemented with the angelica extract sample prepared in Example 7 (2) at 50 μg lyophilized sample per ml medium and incubated further for 24 hours. In a case of negative control, the angelica extract sample was replaced with DMSO (added at 0.1% in the medium).
In a case of positive control, the angelica extract sample was replaced with INF-γ (added at 100 U/ml in the medium). The cell thus incubated was washed twice with a PBS, and used to prepare a total RNA similarly to Example 1 (1). […] The radioactivity of the air-dried filter was determined using BAStation.
On the other hand, 10 μg of the total RNA was subjected to an electrophoresis on the gel described above which contained 0.5 μg/ml of ethidium bromide (Gibco BRL, Catalog No.15582-018) and the fluorescent intensity of 28S ribosome RNA was quantified using Luminescent Image Analyzer LAS-1000 plus (FUJI FILM) and Image Gauge Ver 3.12 (FUJI FILM). The quantity of the type-I collagen α2 strand mRNA relative to the 28S ribosome RNA was calculated in accordance with the following equation. Type-I collagen α2 strand mRNA quantity=Radioactivity of band of about 5.8 kb/fluorescent intensity of 28S ribosome RNA […]

[4] = system: non-binding reporter vector; assay: CAT reporter assay of test substances, non-binding reporter vector-transduced fibroblast; settings: normal human fetal dermal fibroblast; sample 1 μg freeze dried material/ml, IFN-γ 100 U/ml; 40 hours; negative control of binding reporter cell = 1.0
Description: as §1, §2

Molecule: CC(O)C(O)/C=C/C=C\CC/C=C/C(=O)NCC(C)(C)O (stereo not drawn) [Compound A]
relative CAT activity ([1]; binding reporter vector-transduced normal human fetal dermal fibroblast, 8 μM in medium, methanol negative control = 1.0): 0.7

localisation of YB-1-GFP fluorescence (cytoplasmic / intranuclear) [2]: no cytoplasmic fluorescence
B1: Positive control: interferon-γ (Roche) added at 100 U/ml in the medium (protein, UniProt P01579 24-161, looked up)
Interferon gamma: QDPYVKEAENLKKYFNAGHSDVADNGTLFLGILKNWKEESDRKIMQSQIVSFYFKLFKNFKDDQSIQKSVETIKEDMNVKFFNSNKKKRDDFEKLTNYSVTDLNVQRKAIHELIQVMAELSPAAKTGKRKRSQMLFRG
Relative transcription level of type-I collagen gene (α2 strand mRNA level) ([3]; Table 5, TGFβ column prints Absent (method: TGFβ 10 ng/ml), negative control with TGFβ = 1.0): 0.5
Relative transcription level of type-I collagen gene (α2 strand mRNA level) ([3]; normal human fetal dermal fibroblast, TGFβ absent, 24 hours, negative control = 1.0): 0.5
Relative CAT activity, binding reporter vector-transduced cell ([1]; normal human fetal dermal fibroblast, sample 1 μg freeze dried material/ml, IFN-γ 100 U/ml, 40 hours, negative control = 1.0): 0.6
Relative CAT activity, non-binding reporter vector-transduced cell [4]: 0.9
